Source: patent US20250034266A1 (ZAI LAB SHANGHAI, published 2025)
Residue numbers refer to the chain shown, from its start. Names may count otherwise.

B1: Hu149-3 (antibody, V domains shown)
VH: EVQLVESGGGLVQPGGSLKLSCAASGFTFNTYAMNWVRQASGKGLEWVGRIRSKSNFYATAYAASVKGRFTISRDDSKNTAYLQMNSLKTEDTAVYYCVRGRDYGSSYAMDYWGQGTLVTVSS
VL: DIVMTQSPLSLPVTPGEPASISCRSSKSLLHSNANTYLYWFLQKPGQSPQLLIYRMSNLASGVPDRFSGSGSGTDFTLKISRVEAEDVGVYYCMQHLEYPLTFGGGTKVELK
notes: humanized IgG
B2: Hu149-8 (antibody, V domains shown)
VH: B1 VH with A61Y, V99T
VL: B1 VL with F41Y
notes: humanized IgG
B3: Hu149-7 (antibody, V domains shown)
VH: B1 VH
VL: B1 VL with F41Y
notes: humanized IgG
B4: Hu149-6 (antibody, V domains shown)
VH: B1 VH with N35H, A61Y
VL: B1 VL with F41Y
notes: humanized IgG
B5: Hu149-5 (antibody, V domains shown)
VH: B1 VH with A61Y
VL: B1 VL with F41Y
notes: humanized IgG
B6: Hu149-11G1x (antibody)
heavy: B1 VH with V99T, D103E
VL: B1 VL
notes: Fc variant of Hu149-11; not shown: Fc variant 'G1x' is not defined in words
B7: Hu149-11G1m (antibody, human IgG1)
heavy: EVQLVESGGGLVQPGGSLKLSCAASGFTFNTYAMNWVRQASGKGLEWVGRIRSKSNFYATAYAASVKGRFTISRDDSKNTAYLQMNSLKTEDTAVYYCTRGREYGSSYAMDYWGQGTLVTVSSASTKGPSVFPLAPSSKSTSGGTAALGCLVKDYFPEPVTVSWNSGALTSGVHTFPAVLQSSGLYSLSSVVTVPSSSLGTQTYICNVNHKPSNTKVDKKVEPKSCDKTHTCPPCPAPELVGGPSVFLLPPKPKDTLMISRTPEVTCVVVDVSHEDPEVKFNWYVDGVEVHNAKTKPPEEQYNSTLRVVSVLTVLHQDWLNGKEYKCKVSNKALPAPIEKTISKAKGQPREPQVYTLPPSRDELTKNQVSLTCLVKGFYPSDIAVEWESNGQPENNYKTTPLVLDSDGSFFLYSKLTVDKSRWQQGNVFSCSVMHEALHNHYTQKSLSLSPGK
VL: B1 VL
B8: Hu149-12G1m (antibody, human IgG1)
heavy: B7 heavy with R102K
VL: B1 VL
notes: suffix G1m read as for Hu149-11G1m (L235V/F243L/R292P/Y300L/P396L)
B9: Hu149-12G1x (antibody)
heavy: B1 VH with V99T, R102K, D103E
VL: B1 VL
notes: Fc variant of Hu149-12; not shown: Fc variant 'G1x' is not defined in words
B10: 499B1A5 (antibody, V domains shown)
VH: EVQLVESGGGLVQPKGSLKLSCAASGFTFNTYAMNWVRQAPGKGLEWVARIRSKSNNYATYYADSVKDRFTISRDDSQSMLYLQMNNLKTEDTAMYYCVRHGRSGYLYAMDYWGQGTSVTVSS
VL: DIVMTQAAFSNPVTLGTSASISCRSSKSLLHSNGITYLYWYLQKPGQSPQLLIYQMSNLASGVPDRFSSSGSGTDFTLRISRVEAEDVGVYYCAQSLELPLTFGAGTKLELK
notes: Murine hybridoma antibody (supernatant)
B11: Hu348-1 (antibody, V domains shown)
VH: EVQLVESGGGLVQPGGSLKLSCATSGFSFSNYRMHWLRQASGKGLEWVGVITVKSDNYGANYAASVKGRFTISRDDSKSSVYLQMNSLKTEDTAVYYCSSLGRVAYWGQGTLVTVSS
VL: DIQMTQSPSSVSASVGDRVTITCKASQNVDTNVVWYQQKPGQSPKALIYSASSRYSGVPDRFSGSGSGTDFTLTISSLQPEDFATYYCQQHNSFPLTFGQGTKLEIK
notes: humanized IgG
B12: Hu348-3 (antibody, V domains shown)
VH: B11 VH
VL: B11 VL with A46L
notes: humanized IgG
B13: Hu348-5 (antibody, V domains shown)
VH: B11 VH with T24A, R33A
VL: B11 VL
notes: humanized IgG
B14: Hu348-7 (antibody, V domains shown)
VH: B11 VH with V50R, A60T, N61A
VL: B11 VL
notes: humanized IgG
B15: Hu348-6 (antibody, V domains shown)
VH: B11 VH with L37V
VL: B11 VL
notes: humanized IgG
B16: Hu348-8 (antibody, V domains shown)
VH: B11 VH with S79N, S80T, V81A
VL: B11 VL
notes: humanized IgG
B17: Hu348-9 (antibody, V domains shown)
VH: B11 VH with S99T
VL: B11 VL
notes: humanized IgG
B18: Hu348-2 (antibody, V domains shown)
VH: B11 VH
VL: B11 VL with Q42K, S43A
notes: humanized IgG

molecular target: T1, human CCR8 (human, UniProt P51685 1-355); test: FACS, competition with AF647-human CCL1 on CHO-K1-human CCR8 cells
T1 construct: whole, on cells; also called hCCR8
T1 sequence (P51685 whole entry, the tested form may be a part): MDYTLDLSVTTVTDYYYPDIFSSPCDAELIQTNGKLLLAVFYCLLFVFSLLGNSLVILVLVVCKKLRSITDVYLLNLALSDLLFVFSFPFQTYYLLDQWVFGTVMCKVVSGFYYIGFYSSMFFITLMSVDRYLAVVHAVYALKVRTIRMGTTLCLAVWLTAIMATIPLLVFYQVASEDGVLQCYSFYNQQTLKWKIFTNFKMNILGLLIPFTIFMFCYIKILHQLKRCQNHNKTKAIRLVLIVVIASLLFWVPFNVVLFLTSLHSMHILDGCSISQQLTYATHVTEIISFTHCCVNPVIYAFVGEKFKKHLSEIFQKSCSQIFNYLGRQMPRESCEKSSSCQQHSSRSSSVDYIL

Row | IC50 [nM] | Max Inhibition (%) | Binder
1 | 0.478 | 99.2 | B1
2 | 1.24 | 86.5 | B2
3 | 37.8 | 59 | B3
4 | 2.37 | 1 | B4
5 | 49.6 | 57.3 | B5

molecular target: T2, cynomolgus CCR8 (cynomolgus, UniProt G7NYJ2 1-355); test: FACS on HEK293-cynomolgus CCR8 cells
T2 construct: whole, on cells
T2 sequence (G7NYJ2 entry or part of it): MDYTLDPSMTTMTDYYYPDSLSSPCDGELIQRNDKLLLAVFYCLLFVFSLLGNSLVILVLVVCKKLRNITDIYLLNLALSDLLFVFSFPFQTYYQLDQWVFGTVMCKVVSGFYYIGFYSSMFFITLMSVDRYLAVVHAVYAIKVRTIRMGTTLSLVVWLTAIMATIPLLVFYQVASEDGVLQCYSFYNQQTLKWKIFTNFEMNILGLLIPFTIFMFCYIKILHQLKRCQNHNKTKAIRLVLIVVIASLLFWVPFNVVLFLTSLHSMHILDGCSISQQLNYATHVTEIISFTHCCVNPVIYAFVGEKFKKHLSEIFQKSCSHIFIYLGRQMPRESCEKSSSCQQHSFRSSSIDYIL

Row | EC50 [nM] | Max MFI [MFI] | Binder
6 | 0.24 | 4.52e+06 | B6
7 | 0.217 | 4.34e+06 | B7
8 | 0.183 | 3.24e+06 | B8
9 | 0.15 | 3.65e+06 | B9

molecular target: T3, cynomolgus CCR8 (cynomolgus, UniProt G7NYJ2 1-355); test: FACS, hybridoma supernatant on cynomolgus CCR8 cells
T3 construct: whole, on cells; also called HEK293-Cynomolgus CCR8; ExpiCHO-S cynomolgus CCR8
Procedure: (§1) Binding of hybridoma supernatant on CHO-K1-human CCR8 and ExpiCHO-S cynomolgus CCR8 cells. A total of 660 96-well plates were seeded and screened by FACS binding from the hybridoma derived from immunized animals.
(§2) To obtain antibodies cross-reactive to human and cynomolgus CCR8, hybridomas from mice immunized with human and cynomolgus CCR8 DNAs were screened by FACS. Briefly, 50 μL ExpiCHO-S cells transfected with human CCR8 or cynomolgus CCR8 (cell density: 2×10⁶ cells/mL, viability>90%) were incubated with equal volume hybridoma supernatant in 96 well plate (Corning) at 4° C. for 1 hour. […] Finally, the mixture was washed and resuspended with FACS buffer, and subjected to FACS analysis on BD FACS Celesta.
T3 sequence (G7NYJ2 entry or part of it): as above

Row | Binding Ratio (GFP + MFI)/(GFP - MFI) | Binder
10 | 35.1 | B10

molecular target: T4, human CCR8 (human, UniProt P51685 1-355); test: FACS, hybridoma supernatant on CHO-K1-human CCR8 cells
T4 construct: whole, on cells; In the β-arrestin assay CCR8 is fused to the ProLink (PK) tag; also called hCCR8; CHO-K1-human CCR8
Procedure: as §1, §2
T4 sequence (P51685 whole entry, the tested form may be a part): as the sequence (P51685 whole entry, the tested form may be a part) above

Row | Binding Ratio (GFP + MFI)/(GFP - MFI) | Binder
11 | 34.4 | B10

molecular target: T1, human CCR8; test: FACS on HEK293-human CCR8 cells

Row | EC50 [nM] | Max MFI [MFI] | Binder
12 | 0.122 | 5110 | B11
13 | 0.108 | 4090 | B12
14 |  | 163 | B13
15 |  | 756 | B14
16 | 0.978 | 1980 | B15
17 | 0.144 | 4730 | B16
18 | 0.182 | 4500 | B17
19 | 0.119 | 4740 | B18

molecular target: T1, human CCR8; test: FACS, competition with AF647-human CCL1 on CHO-K1-human CCR8 cells; remark: another data set of the same source

Row | IC50 [nM] | Max Inhibition (%) | Binder
20 | 0.23 | 94.1 | B11
21 | 0.362 | 83.1 | B12
22 |  | 1.39 | B13
23 |  | 25.6 | B14
24 | 1.84 | 78.3 | B15
25 | 0.358 | 88.4 | B16
26 | 0.333 | 88.2 | B17
27 | 0.216 | 92.4 | B18

molecular target: T1, human CCR8; test: FACS on HEK293-human CCR8 cells; remark: another data set of the same source
Procedure: (§3) A total of 5×10⁴ cells for each well were seeded in 96-well plates and washed with FACS buffer (DPBD containing 1.5% FBS) for once. Antibodies were prepared with 3-fold serial dilution ranging from 100 nM to 0.0017 nM in FACS buffer. Cells were incubated with 50 μL of diluted antibodies at 4° C. for 1 hour. […] After primary antibody incubation, cells were washed for 3 times by FACS buffer. Then, cells were stained by Alexa Flu647 labeled anti-human IgG secondary antibody (Jackson ImmunoResearch, #109606170) or Alexa Flu647 labeled anti-mouse IgG secondary antibody (Jackson ImmunoResearch, #115605072) at 1:600 dilution in FACS buffer for 0.5 hour at 4° C. After washed for 3 times, Flow cytometry was performed to measure the binding.

Row | EC50 [nM] | Max MFI [MFI] | Binder
28 | 0.193 | 7000 | B1
29 | 0.24 | 3830 | B2
30 | 6.42 | 3110 | B3
31 |  | 138 | B4
32 | 15 | 2470 | B5

molecular target: T1, human CCR8; test: FACS on HuT78 cells (endogenous human CCR8)

Row | EC50 [nM] | Max MFI [MFI] | Binder
33 | 0.427 | 52700 | B6
34 | 0.384 | 45700 | B7
35 | 0.209 | 55600 | B8
36 | 0.313 | 52900 | B9

molecular target: T1, human CCR8; test: FACS, competition with CCL1 on CHO-K1-human CCR8 cells

Row | IC50 [nM] | Max Inhibition (%) | Binder
37 | 0.247 | 99.3 | B6
38 | 0.231 | 99.4 | B7
39 | 0.146 | 99.6 | B8
40 | 0.17 | 100 | B9

molecular target: T2, cynomolgus CCR8; test: FACS on ExpiCHO-S-cynomolgus CCR8 cells

Row | Max MFI [MFI] | EC50 [nM] | Binder
41 | 336 |  | B11
42 | 350 |  | B12
43 | 6 |  | B13
44 | 174 |  | B14
45 | 82 | 31.1 | B15
46 | 267 |  | B16
47 | 148 |  | B17
48 | 296 |  | B18

molecular target: T1, human CCR8; test: FACS on CHO-K1-human CCR8 cells

Row | EC50 [nM] | Max MFI [MFI] | Binder
49 | 0.115 | 200000 | B6
50 | 0.112 | 193000 | B7
51 | 0.0668 | 183000 | B8
52 | 0.0927 | 195000 | B9

molecular target: T2, cynomolgus CCR8; test: FACS on HEK293-cynomolgus CCR8 cells; remark: another data set of the same source
Procedure: as §3

Row | EC50 [nM] | Max MFI [MFI] | Binder
53 | 0.205 | 19900 | B1
54 |  | 2420 | B2
55 |  | 488 | B3
56 |  | 443 | B4
57 |  | 414 | B5

molecular target: T4, human CCR8; test: FACS competition, hybridoma supernatant with 4 nM AF647-human CCL1 on human CCR8 cells

Row | Inhibition Rate (%) | Binder
58 | 95.1 | B10
